{
  "source": "patent US20090098530A1",
  "about": "(CRUCELL HOLLAND B V, published 2009)",
  "biological_target": "T1, human angiotensin-converting enzyme 2 (ACE2 protein) expressed on stably transfected PER.C6 cells (human, UniProt Q9BYF1 18-805)",
  "T1 construct": "also called human ACE2 receptor; PER.C6-ACE2",
  "T1 sequence (Q9BYF1 18-805 limits assumed)": "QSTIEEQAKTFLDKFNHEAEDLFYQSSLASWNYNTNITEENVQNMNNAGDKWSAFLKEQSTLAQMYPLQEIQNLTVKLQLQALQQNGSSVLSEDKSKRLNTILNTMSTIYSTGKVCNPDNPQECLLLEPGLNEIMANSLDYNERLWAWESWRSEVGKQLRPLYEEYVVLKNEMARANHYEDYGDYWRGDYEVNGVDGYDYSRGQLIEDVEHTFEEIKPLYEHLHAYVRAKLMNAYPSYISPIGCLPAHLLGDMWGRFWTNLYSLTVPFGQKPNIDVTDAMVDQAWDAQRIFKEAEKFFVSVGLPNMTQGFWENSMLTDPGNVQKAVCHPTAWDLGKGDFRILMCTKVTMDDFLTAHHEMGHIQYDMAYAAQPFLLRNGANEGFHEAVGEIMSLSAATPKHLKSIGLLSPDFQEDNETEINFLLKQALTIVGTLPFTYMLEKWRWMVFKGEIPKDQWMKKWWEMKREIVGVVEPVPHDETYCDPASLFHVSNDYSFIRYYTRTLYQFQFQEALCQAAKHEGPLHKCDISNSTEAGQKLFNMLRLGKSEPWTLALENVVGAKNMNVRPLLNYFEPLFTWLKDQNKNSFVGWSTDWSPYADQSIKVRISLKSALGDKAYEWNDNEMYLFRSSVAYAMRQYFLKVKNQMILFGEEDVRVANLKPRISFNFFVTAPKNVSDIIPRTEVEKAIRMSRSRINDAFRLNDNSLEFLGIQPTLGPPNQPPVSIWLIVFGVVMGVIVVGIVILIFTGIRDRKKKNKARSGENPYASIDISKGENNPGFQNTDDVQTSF",
  "test": "flow cytometry on ACE2-transfected PER.C6 clones",
  "data": [
    {"binder": "wild-type SARS-CoV Frankfurt 1 S318-510 fragment, myc/His-tagged (ligand) not shown", "values": [
      {"measurement": "binding result", "result": "binds"}
    ]}
  ]
}
